Key:
[1] = target: T181N cucumene synthase (Streptomyces clavuligerus); test: crystal structure
[2] = target: Streptomyces clavuligerus cucumene synthase, wild-type (Streptomyces clavuligerus); test: crystal structure

Row | Substance | stoichiometry N [1] | stoichiometry N [2]
1 | T181N cucumene synthase (enzyme) | 2 | –
2 | Streptomyces clavuligerus cucumene synthase, wild-type (enzyme) | – | 2
